The test addresses human plasma fibronectin (human). Description: ITC; 35 μM peptide titrated into the cell with 2.7 μM human plasma fibronectin; PBS pH 7.4; 25 °C; one set of sites model; duplicates. For orientation: ITC needs no label: the signal is the heat of the interaction.
Chain of human plasma fibronectin (human) (P02751 other isoform, or with tags, fused parts or gaps): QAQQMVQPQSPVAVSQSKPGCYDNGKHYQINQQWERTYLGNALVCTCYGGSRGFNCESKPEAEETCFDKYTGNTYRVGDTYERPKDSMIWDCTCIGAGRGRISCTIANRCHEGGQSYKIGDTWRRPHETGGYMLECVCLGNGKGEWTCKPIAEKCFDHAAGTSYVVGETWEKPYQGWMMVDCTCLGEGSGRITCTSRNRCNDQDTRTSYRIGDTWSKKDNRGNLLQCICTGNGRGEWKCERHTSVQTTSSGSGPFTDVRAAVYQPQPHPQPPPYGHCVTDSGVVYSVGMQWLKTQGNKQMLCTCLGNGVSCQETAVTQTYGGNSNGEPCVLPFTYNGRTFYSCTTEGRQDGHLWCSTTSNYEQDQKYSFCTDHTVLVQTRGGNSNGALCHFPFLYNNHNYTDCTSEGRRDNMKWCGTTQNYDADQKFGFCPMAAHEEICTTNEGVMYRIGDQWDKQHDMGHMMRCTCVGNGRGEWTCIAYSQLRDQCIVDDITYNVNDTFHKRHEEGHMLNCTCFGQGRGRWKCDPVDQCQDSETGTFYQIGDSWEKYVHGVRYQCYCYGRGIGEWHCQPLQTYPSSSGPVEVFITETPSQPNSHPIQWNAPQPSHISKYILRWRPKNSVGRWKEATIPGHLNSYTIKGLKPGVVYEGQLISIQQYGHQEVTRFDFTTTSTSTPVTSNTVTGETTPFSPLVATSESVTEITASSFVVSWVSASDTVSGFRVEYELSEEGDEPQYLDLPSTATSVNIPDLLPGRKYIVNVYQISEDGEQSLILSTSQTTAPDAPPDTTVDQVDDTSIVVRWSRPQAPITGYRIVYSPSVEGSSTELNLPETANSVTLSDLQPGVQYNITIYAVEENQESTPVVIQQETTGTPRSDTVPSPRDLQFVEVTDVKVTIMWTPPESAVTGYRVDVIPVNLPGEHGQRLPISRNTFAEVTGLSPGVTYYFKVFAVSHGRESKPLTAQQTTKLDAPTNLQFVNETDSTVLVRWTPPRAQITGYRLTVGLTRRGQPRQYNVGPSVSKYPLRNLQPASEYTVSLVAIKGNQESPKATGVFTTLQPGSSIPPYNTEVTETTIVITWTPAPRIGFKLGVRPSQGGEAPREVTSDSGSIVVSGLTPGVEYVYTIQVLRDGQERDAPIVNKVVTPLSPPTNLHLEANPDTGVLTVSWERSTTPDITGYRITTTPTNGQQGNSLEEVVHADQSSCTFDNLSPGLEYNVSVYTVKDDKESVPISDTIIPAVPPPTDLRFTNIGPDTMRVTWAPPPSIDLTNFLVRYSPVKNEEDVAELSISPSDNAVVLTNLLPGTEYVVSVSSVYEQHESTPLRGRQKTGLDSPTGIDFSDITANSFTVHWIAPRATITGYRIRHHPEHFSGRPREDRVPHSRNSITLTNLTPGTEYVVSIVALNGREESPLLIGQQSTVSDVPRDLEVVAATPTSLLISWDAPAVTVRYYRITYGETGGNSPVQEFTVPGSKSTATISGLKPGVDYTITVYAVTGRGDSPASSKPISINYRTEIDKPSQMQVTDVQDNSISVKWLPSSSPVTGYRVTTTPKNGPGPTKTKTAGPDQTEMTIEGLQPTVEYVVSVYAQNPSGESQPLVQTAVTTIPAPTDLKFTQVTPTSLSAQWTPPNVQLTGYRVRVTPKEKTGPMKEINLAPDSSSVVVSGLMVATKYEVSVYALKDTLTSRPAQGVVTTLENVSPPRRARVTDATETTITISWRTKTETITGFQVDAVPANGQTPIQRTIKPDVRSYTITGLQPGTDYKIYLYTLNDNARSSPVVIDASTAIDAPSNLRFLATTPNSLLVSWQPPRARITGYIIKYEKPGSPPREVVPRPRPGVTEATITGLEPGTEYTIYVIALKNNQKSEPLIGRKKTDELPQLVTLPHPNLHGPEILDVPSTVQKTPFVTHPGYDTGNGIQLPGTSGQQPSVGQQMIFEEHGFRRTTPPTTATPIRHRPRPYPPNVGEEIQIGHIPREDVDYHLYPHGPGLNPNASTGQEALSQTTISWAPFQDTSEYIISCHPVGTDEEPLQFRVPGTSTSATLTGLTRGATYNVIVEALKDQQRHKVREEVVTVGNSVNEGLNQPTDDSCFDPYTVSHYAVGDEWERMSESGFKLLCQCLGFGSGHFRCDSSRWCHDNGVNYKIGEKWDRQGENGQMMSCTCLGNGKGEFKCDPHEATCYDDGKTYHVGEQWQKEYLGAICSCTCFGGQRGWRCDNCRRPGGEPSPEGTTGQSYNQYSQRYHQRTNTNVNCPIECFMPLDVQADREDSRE
Consider “Functional Upstream Domain (FUD) peptide (peptide; other documents disagree on this pair)”, for which the Kd is 4.3 nM, the dH was -33 kcal/mol and the stoichiometry N was found to be 1.47.
The matching figures for “singly sulfo-Cy5 labeled FUD peptide (peptide; other documents disagree on this pair)”: 4.7 nM, -35.8 kcal/mol and 1.48.
The matching figures for “sulfo-Cy5 labeled 20 kDa PEG-FUD (peptide; other documents disagree on this pair)”: 13 nM, -35 kcal/mol and 1.5.

As usually defined, the Kd is a measure of binding affinity in units of concentration. A high value points to lower affinity. As a reminder, the stoichiometry N is the number of molecules, sites or subunits per partner or assembly.

The values above are taken from paper PMC6612524.
